{"source": "patent US12296018B2", "about": "“Albumin binding peptide-drug (AlBiPeD) conjugates and methods of making and using same” (priority 2018, dated 2025)", "key": {"[1]": {"target": "T1, human serum albumin (HSA) (Homo sapiens, UniProt P02768)", "T1 construct": "purchased Sigma-Aldrich (St. Louis, MO)", "assay": "Isothermal titration calorimetry of ABD-Dox with HSA", "type": "binding", "conditions": "ITC, 37° C., PBS", "method": "The gel was stained with SimplyBlue stain according to the manufacturer's instructions and imaged using the Gel Doc imaging system (Bio-Rad, Hercules, CA). Isothermal titration calorimetry was done using a standard volume Nano ITC from TA instruments (Lindon, Utah). […] The calorimetric data were analyzed by NanoAnalyze software (TA instruments, Lindon, UT) and were fit to an independent binding site model to compute the thermodynamic parameters including dissociation constant (KD), binding stoichiometry (n), enthalpy (ΔH), and entropy (ΔS)."}, "[2]": {"assay": "pH-dependent Dox release from ABD-Dox conjugate (size exclusion HPLC)", "type": "physicochemical", "method": "Drug release Dox release from the ABD-Dox conjugate was measured at pH 7.4 and 5.0, corresponding to the physiological pH and late endosomal pH, respectively. ABD-Dox in PBS (400 μM Dox Equiv.) was diluted with an equal volume of either 0.1 M Na—PO4, pH 7.4 buffer, 0.1 M Na-acetate, pH 5.0 buffer, incubated at 37° C. for 0, 0.25, 0.5, 1, 2, 4, 6, and 24 h, and neutralized using an equal volume of 0.1 M Na—PO4, pH 7.4 buffer. Samples were then analyzed by size exclusion HPLC using the same chromatography conditions as described above for the characterization of Dox conjugates and the percentage of released Dox was calculated by integrating the area under the peak corresponding to unbound Dox. The cumulative percent released Dox (F %, released) versus time was fit to a first order release model: F %, released=a[1−exp(−ln(2)t/t1/2)] where t is the time (h) after incubation, tia is the half-maximal release time (h), and a (%) is the maximum extent of drug release, using GraphPad Prism software (GraphPad, San Diego, CA)."}, "[3]": {"assay": "Intravenous pharmacokinetics in healthy BALB/c mice", "method": "Pharmacokinetics and biodistribution Pharmacokinetics and biodistribution experiments were performed to study the concentration of ABD-Dox in blood and tissues over time following intravenous (i.v.) administration. For the pharmacokinetic study, ABD-Dox and Dox in PBS and AlDox in 10 mM sodium phosphate, 5% D-(+)-glucose, pH 5.8 were injected at 5 mg Dox Equiv. per kg of body weight (BW) into healthy BALB/c mice. 10 μL blood samples were collected at 40 s, 15 min and 30 min, and 2, 4, 8, 24, 48, 72 and 96 h post injection and were diluted into heparinized PBS (1 kUmL^−1), and centrifuged at 4,000 rcf, 10 min, 4° C. to collect the plasma. 10 μL of the plasma samples were then diluted in 490 μL of acidified isopropanol (0.075 M HCl, 10% water) and incubated overnight at 4° C. For the biodistribution study, ABD-Dox and Dox in PBS were injected at 5 mg Dox Equiv.kg^−1 BW into C26 tumor-bearing BALB/c mice. At 2 h, 24 h, and 72 h post-injection, mice were sacrificed and tumor, heart, lung, liver, spleen, kidney and muscle tissues were dissected, weighed, homogenized in acidified isopropanol using a Mini-Beadbeater (Biospec, Bartlesville, OK) with 2 mm diameter zirconia beads for 1-2 min, and were incubated overnight at 4° C. Following overnight incubation in acidified isopropanol, plasma and tissue samples were centrifuged at 16,000 rcf, 4° C. for 10 min and the supernatants were loaded onto black 96-well plates in duplicate and the Dox fluorescence was measured using on a Victor3 microplate reader (Perkin Elmer, Waltham, MA) with fluorescence excitation at 485 nm and emission at 590 nm. Tissues were also dissected from three untreated mice, processed in the same manner, serially diluted, and loaded on the plates to prepare a standard curve of fluorescence intensity versus the weight for each tissue from which the background tissue fluorescence was calculated and subtracted for each sample. Serial dilution of free Dox in acidified isopropanol was used as standard to quantify the Dox concentration as […] per liter of plasma (μM) and as the percent of the injected dose per gram (% ID g^−1) in the tumor and other tissues. Plasma concentrations of Dox Equiv. of ABD-Dox versus time were fit to a two-compartment model using SAAM II software (SAAM Institute, Seattle, WA) and the elimination half-life and the area-under-curve were computed. The tissue concentration of Dox. Equiv. of ABD-Dox and free Dox at each time point were compared in GraphPad Prism software (GraphPad, San Diego, CA) by Student's t-test with P<0.05 considered statistically significant."}, "[4]": {"assay": "Dose-escalation study, maximum tolerated dose", "type": "in vivo, BALB/c mice", "method": "With these encouraging biodistribution results in hand, tumor regression in vivo by ABD-Dox was investigated. The maximum tolerated dose (MTD) of ABD-Dox was established in healthy mice. A range of doses of ABD-Dox were injected into healthy BALB/c mice, and body weight loss and mortality of the mice were monitored over a two-week period to assess systemic toxicity. […] Using these criteria, the MTD was determined to be 20 mg Dox Equiv.kg^−1 for ABD-Dox (FIG. 7) and 10 mgkg^−1 BW MTD of free Dox (FIG. 8)."}, "[5]": {"assay": "Aqueous solubility", "type": "physicochemical", "conditions": "pH 7.4 PBS", "method": "To remove the ELP160 tag, the KEKE-ELP160-srt-ABD-Dox conjugate was buffer exchanged into sortase reaction buffer, and was reacted with (His)6-sortase A-ELP40 in the presence of a 50 fold molar excess of triglycine (FIG. 2A). The efficiency of the sortase reaction, defined as the percent conversion of ELP-ABD-Dox substrate to ABD-Dox, was determined by size exclusion HPLC and was calculated to be ≥85% (FIG. 3A). The ABD-Dox product was then separated from (His)6-sortase A-ELP40, the cleaved KEKE-ELP160 tag, and unreacted KEKE-ELP160-srt-ABD-Dox in the sortase reaction solution by preparative size exclusion chromatography (SEC). The number of Dox molecules conjugated per ABD (Dox/ABD molar ratio) was measured before the sortase reaction by dissolving the lyophilized KEKE-ELP160-srt-ABD-Dox conjugate in PBS and calculating the moles of KEKE-ELP160-srt-ABD-Dox and Dox gravimetrically and spectrophotometrically at 488 nm, respectively. 3-4 Dox molecules were attached to each KEKE-ELP160-srt-ABD-(CGG)8. However, following removing the ELP160 tag, the resulting ABD-Dox conjugate was too hydrophobic and insoluble in pH 7.4 PBS because of the high number of conjugated Dox molecules. […] Formulation of AlDox in acidic pH, however, is undesirable as it can trigger the premature, in vitro degradation of the hydrazone bond between Dox and EMCH, converting AlDox back to free Dox."}}, "note": "Several values for one entry are separate records, joined by “and”; a condition that tells them apart may be missing. Identical values can stand only once. Entries after “also recorded” stand apart in the source; their conditions may differ."}
{"substance": "ABD-Dox (GLAEAKVLANRELDKYGVSDYYKNLINNAKTVEGVKALIDEILAALPCGGCGGCGGCGG)", "values": [{"measurement": "ΔH", "setting": "[1]", "result": -6.72, "unit": "kcal/mol"}, {"measurement": "ΔS", "setting": "[1]", "result": 41.5, "unit": "Jmol^−1K^−1"}, {"measurement": "n (binding stoichiometry)", "setting": "[1]; independent binding site model", "result": "1.03 and 1.0"}, {"measurement": "drug released", "setting": "[2]; pH 5.0, over 24 h, 37° C.", "result": "about 70%"}, {"measurement": "Dox release", "setting": "[2]; pH 7.4, 37° C.", "result": "negligible; also recorded: low, basal level of release"}, {"measurement": "drug in plasma at late time point", "setting": "[3]; 96 h after injection", "result": "detectable in plasma even 96 h after injection"}, {"measurement": "Area under curve (total plasma exposure)", "setting": "[3]; i.v., 5 mg Dox Equiv. per kg BW, plasma", "result": "2263.6 ± 44.7", "unit": "µM·h"}, {"measurement": "Elimination half-life", "setting": "[3]; i.v., 5 mg Dox Equiv. per kg BW, plasma, two-compartment model", "result": "29.4 ± 0.8 h and 29.4 h"}, {"measurement": "area under the curve, fold higher than AlDox", "setting": "[3]; mouse, in vivo", "result": 3, "unit": "fold"}, {"measurement": "maximum tolerated dose (MTD)", "setting": "[4]; i.v., healthy BALB/c mice, two weeks, no mortality or body weight loss greater than 15%", "result": 20, "unit": "mg Dox Equiv.kg^−1"}, {"measurement": "maximum tolerated dose, fold higher than free drug", "setting": "[4]; mouse, in vivo", "result": 2, "unit": "fold"}, {"measurement": "aqueous solubility", "setting": "[5]", "result": "up to 4 mg Dox Equiv.mL^−1"}]}
